Experimental data: publication PMC11192940

Biological target: GST-Rheb protein (UniProt Q15382)
Test: BLI

Sequence of GST-Rheb protein (Q15382 1-169): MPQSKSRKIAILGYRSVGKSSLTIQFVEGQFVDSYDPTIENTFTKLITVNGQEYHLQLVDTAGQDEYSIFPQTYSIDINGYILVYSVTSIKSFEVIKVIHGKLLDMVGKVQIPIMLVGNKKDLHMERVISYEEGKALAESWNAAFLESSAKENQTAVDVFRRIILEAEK

Substance: His-IL-37d, recombinant human IL-37d protein with a TAT peptide (pET-22b-TAT-his-IL-37d; mature IL-37d 21–197aa) (from UniProt Q9NZH6-4 21-197)
- Kd: 54.2 nM
